T1: LNX2_2, Q8N448
T1 sequence (Q8N448 334-432, limits assumed, looked up): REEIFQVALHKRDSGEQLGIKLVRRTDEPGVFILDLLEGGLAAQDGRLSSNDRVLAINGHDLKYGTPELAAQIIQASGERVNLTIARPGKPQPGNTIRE

T2: APBA1_2, Q02410
T2 sequence (Q02410 742-832, limits assumed, looked up): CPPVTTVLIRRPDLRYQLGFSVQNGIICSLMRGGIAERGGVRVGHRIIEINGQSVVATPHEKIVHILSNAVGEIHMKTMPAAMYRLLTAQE

T3: NHERF3_3, Q5T2W1
T3 sequence (Q5T2W1 238-333, limits assumed, looked up): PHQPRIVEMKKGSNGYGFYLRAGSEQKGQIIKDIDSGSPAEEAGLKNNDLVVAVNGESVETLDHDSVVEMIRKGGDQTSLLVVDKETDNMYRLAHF

T4: GRIP1_4, Q9Y3R0
T4 sequence (Q9Y3R0 467-571, limits assumed, looked up): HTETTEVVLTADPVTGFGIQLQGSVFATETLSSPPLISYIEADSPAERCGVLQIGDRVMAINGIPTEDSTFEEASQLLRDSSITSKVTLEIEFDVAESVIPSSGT

T5: APBA1_1, Q02410
T5 sequence (Q02410 651-752, limits assumed, looked up): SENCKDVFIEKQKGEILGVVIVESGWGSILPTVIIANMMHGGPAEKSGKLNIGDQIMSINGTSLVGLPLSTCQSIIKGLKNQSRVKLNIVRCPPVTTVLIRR

T6: HTRA3, P83110
T6 sequence (P83110 354-453, limits assumed, looked up): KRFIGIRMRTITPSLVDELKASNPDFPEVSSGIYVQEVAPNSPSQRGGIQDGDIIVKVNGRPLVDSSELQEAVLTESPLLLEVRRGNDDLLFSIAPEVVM

T7: APBA2_1, Q99767
T7 sequence (Q99767 563-664, limits assumed, looked up): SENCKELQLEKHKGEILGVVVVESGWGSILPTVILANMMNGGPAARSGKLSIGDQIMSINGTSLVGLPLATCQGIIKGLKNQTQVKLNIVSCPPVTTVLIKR

T8: SNTA1, Q13424
T8 sequence (Q13424 82-180, limits assumed, looked up): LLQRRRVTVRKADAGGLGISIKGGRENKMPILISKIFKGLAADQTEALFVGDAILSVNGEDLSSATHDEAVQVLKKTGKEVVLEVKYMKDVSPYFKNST

T9: MPDZ_10, O75970
T9 sequence (O75970 1624-1722, limits assumed, looked up): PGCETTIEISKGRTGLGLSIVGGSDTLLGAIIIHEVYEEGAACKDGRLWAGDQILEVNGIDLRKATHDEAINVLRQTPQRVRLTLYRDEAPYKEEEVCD

T10: LIN7C, Q9NUP9
T10 sequence (Q9NUP9 88-185, limits assumed, looked up): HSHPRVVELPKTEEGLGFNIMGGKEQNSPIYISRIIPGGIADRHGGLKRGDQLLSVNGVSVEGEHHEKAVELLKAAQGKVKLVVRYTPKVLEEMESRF

T11: LNX2_3, Q8N448
T11 sequence (Q8N448 463-564, limits assumed, looked up): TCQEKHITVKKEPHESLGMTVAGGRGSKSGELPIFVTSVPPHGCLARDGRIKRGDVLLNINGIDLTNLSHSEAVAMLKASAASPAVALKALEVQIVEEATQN

T12: APBA2_2, Q99767
T12 sequence (Q99767 654-744, limits assumed, looked up): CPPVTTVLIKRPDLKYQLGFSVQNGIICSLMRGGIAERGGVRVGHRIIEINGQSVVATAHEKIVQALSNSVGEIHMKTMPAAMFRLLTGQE

T13: DVL3, Q92997
T13 sequence (Q92997 244-331, limits assumed, looked up): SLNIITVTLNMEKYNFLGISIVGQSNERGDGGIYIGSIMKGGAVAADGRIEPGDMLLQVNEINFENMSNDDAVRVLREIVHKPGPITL


Legend:
Assay in all cases: holdup assay
Parameters in all cases: key: below the threshold = too weak to quantify, mostly under pKd 3.1 to 4
Conditions in all cases: plain residues with an end cap or a label only (N-terminal biotin on a linker: ado-ado)
LNX2_2, Q8N448 = biological target: T1, LNX2_2, Q8N448
APBA1_2, Q02410 = biological target: T2, APBA1_2, Q02410
MAGI2_2, Q86UL8 = biological target: MAGI2_2, Q86UL8
NHERF4_4, Q86UT5 = biological target: NHERF4_4, Q86UT5
GRIP2_4, Q9C0E4 = biological target: GRIP2_4, Q9C0E4
NHERF3_3, Q5T2W1 = biological target: T3, NHERF3_3, Q5T2W1
GRIP1_4, Q9Y3R0 = biological target: T4, GRIP1_4, Q9Y3R0
APBA1_1, Q02410 = biological target: T5, APBA1_1, Q02410
HTRA3, P83110 = biological target: T6, HTRA3, P83110
APBA2_1, Q99767 = biological target: T7, APBA2_1, Q99767
SNTA1, Q13424 = biological target: T8, SNTA1, Q13424
MPDZ_10, O75970 = biological target: T9, MPDZ_10, O75970
PDLIM1, O00151 = biological target: PDLIM1, O00151
GRID2IP_1, A4D2P6 = biological target: GRID2IP_1, A4D2P6
Inadl_4, Q8NI35 = biological target: Inadl_4, Q8NI35
LIN7C, Q9NUP9 = biological target: T10, LIN7C, Q9NUP9
NHERF4_2, Q86UT5 = biological target: NHERF4_2, Q86UT5
SCRIB_1, Q14160 = biological target: SCRIB_1, Q14160
LNX2_3, Q8N448 = biological target: T11, LNX2_3, Q8N448
FRMPD2_3, Q68DX3 = biological target: FRMPD2_3, Q68DX3
DLG4_1, P78352 = biological target: DLG4_1, P78352
APBA2_2, Q99767 = biological target: T12, APBA2_2, Q99767
DVL3, Q92997 = biological target: T13, DVL3, Q92997
LNX1_3, Q8TBB1 = biological target: LNX1_3, Q8TBB1
LNX1_2, Q8TBB1 = biological target: LNX1_2, Q8TBB1
Chain of LNX1_2, Q8TBB1 (Q8TBB1 371-470): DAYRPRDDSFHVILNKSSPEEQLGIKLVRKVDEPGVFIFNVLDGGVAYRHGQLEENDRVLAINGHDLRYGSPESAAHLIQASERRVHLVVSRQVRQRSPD

Chain of NHERF4_2, Q86UT5 (Q86UT5 220-308): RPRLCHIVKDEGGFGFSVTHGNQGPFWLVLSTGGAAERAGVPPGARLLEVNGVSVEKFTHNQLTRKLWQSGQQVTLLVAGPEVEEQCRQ
Chain of SCRIB_1, Q14160 (Q14160 718-814): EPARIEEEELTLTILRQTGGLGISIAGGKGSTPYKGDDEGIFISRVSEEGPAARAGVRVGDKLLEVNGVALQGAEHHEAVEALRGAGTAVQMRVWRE
Chain of PDLIM1, O00151 (O00151 1-87): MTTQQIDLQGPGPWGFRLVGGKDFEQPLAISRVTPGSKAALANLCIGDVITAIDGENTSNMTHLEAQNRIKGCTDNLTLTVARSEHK
Chain of Inadl_4, Q8NI35 (Q8NI35 547-651): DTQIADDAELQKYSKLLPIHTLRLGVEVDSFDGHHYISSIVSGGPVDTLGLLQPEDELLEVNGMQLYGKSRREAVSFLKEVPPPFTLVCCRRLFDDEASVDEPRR
Chain of NHERF4_4, Q86UT5 (Q86UT5 464-550): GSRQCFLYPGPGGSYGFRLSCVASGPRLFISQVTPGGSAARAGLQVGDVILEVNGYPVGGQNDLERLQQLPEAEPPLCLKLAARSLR
Chain of MAGI2_2, Q86UL8 (Q86UL8 410-522): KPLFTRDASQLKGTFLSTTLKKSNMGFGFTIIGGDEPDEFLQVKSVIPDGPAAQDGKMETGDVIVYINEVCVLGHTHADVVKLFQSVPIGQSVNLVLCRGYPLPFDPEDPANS
Chain of LNX1_3, Q8TBB1 (Q8TBB1 500-596): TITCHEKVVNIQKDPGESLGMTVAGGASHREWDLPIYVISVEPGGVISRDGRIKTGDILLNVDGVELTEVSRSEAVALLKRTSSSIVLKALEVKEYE
Chain of GRID2IP_1, A4D2P6 (A4D2P6 1-87): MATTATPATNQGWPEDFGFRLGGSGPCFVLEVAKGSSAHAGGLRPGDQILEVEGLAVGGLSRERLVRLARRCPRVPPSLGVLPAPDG
Chain of GRIP2_4, Q9C0E4 (Q9C0E4 446-548): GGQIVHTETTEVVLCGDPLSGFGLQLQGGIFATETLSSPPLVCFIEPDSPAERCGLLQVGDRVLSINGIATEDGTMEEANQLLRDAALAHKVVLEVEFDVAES
Chain of FRMPD2_3, Q68DX3 (Q68DX3 1073-1166): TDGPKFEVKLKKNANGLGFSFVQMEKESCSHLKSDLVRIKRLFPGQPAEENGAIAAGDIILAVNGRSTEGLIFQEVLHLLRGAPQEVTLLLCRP
Chain of DLG4_1, P78352 (P78352 62-152): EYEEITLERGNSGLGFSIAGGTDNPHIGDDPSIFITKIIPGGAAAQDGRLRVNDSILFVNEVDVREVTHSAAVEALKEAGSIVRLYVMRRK

Binder	pKd (LNX2_2, Q8N448)	pKd (APBA1_2, Q02410)	pKd (MAGI2_2, Q86UL8)	pKd (NHERF4_4, Q86UT5)	pKd (GRIP2_4, Q9C0E4)	pKd (NHERF3_3, Q5T2W1)	pKd (GRIP1_4, Q9Y3R0)	pKd (APBA1_1, Q02410)	pKd (HTRA3, P83110)	pKd (APBA2_1, Q99767)	pKd (SNTA1, Q13424)	pKd (MPDZ_10, O75970)	pKd (PDLIM1, O00151)	pKd (GRID2IP_1, A4D2P6)	pKd (Inadl_4, Q8NI35)	pKd (LIN7C, Q9NUP9)	pKd (NHERF4_2, Q86UT5)	pKd (SCRIB_1, Q14160)	pKd (LNX2_3, Q8N448)	pKd (FRMPD2_3, Q68DX3)	further results
VRPGVKESLV [SCN4A, P35499]	3.91	below the threshold	5.2	3.96	below the threshold	below the threshold	below the threshold	below the threshold	below the threshold	below the threshold	4.76	below the threshold	below the threshold	below the threshold	below the threshold	4.38	below the threshold	4.48	below the threshold	below the threshold	pKd (DLG4_1, P78352): 4.98; pKd (APBA2_2, Q99767): below the threshold; pKd (DVL3, Q92997): below the threshold; pKd (LNX1_3, Q8TBB1): below the threshold; pKd (LNX1_2, Q8TBB1): below the threshold
LDKESFLTWL [YAP1, P46937]	4.38	4.88	3.55	4.16	below the threshold	4.15	below the threshold	4.06	5.5	below the threshold	below the threshold	below the threshold	4.1	below the threshold	below the threshold	below the threshold	below the threshold	4.47	below the threshold	below the threshold	pKd (DLG4_1, P78352): below the threshold; pKd (APBA2_2, Q99767): below the threshold; pKd (DVL3, Q92997): 4.64; pKd (LNX1_3, Q8TBB1): below the threshold; pKd (LNX1_2, Q8TBB1): below the threshold
QNRIITKTDV [SMCHD1, A6NHR9]	below the threshold	3.9	4.08	below the threshold	below the threshold	below the threshold	below the threshold	below the threshold	below the threshold	below the threshold	3.61	3.97	below the threshold	below the threshold	below the threshold	3.94	below the threshold	3.88	below the threshold	below the threshold	pKd (DLG4_1, P78352): 3.82; pKd (APBA2_2, Q99767): below the threshold; pKd (DVL3, Q92997): below the threshold; pKd (LNX1_3, Q8TBB1): below the threshold; pKd (LNX1_2, Q8TBB1): below the threshold
AEDEEIQTKM [UNC93A, Q86WB7]	below the threshold	below the threshold	below the threshold	below the threshold	below the threshold	4.16	below the threshold	below the threshold	below the threshold	below the threshold	below the threshold	below the threshold	below the threshold	below the threshold	below the threshold	below the threshold	below the threshold	below the threshold	below the threshold	below the threshold	pKd (DLG4_1, P78352): below the threshold; pKd (APBA2_2, Q99767): below the threshold; pKd (DVL3, Q92997): below the threshold; pKd (LNX1_3, Q8TBB1): below the threshold; pKd (LNX1_2, Q8TBB1): below the threshold
SVISRREWYV [NECTIN3, Q9NQS3]	5.15	3.85	5.35	4.07	below the threshold	below the threshold	below the threshold	below the threshold	4.99	below the threshold	3.48	below the threshold	below the threshold	below the threshold	below the threshold	3.95	below the threshold	below the threshold	below the threshold	4.44	pKd (DLG4_1, P78352): below the threshold; pKd (APBA2_2, Q99767): below the threshold; pKd (DVL3, Q92997): 4.69; pKd (LNX1_3, Q8TBB1): 4.81; pKd (LNX1_2, Q8TBB1): 4.59
NRVDSKETEC [ADAM17, P78536]	3.5	below the threshold	below the threshold	below the threshold	below the threshold	below the threshold	below the threshold	below the threshold	3.65	below the threshold	4.7	below the threshold	below the threshold	below the threshold	below the threshold	3.81	below the threshold	4.49	below the threshold	below the threshold	pKd (DLG4_1, P78352): 4.32; pKd (APBA2_2, Q99767): below the threshold; pKd (DVL3, Q92997): below the threshold; pKd (LNX1_3, Q8TBB1): below the threshold; pKd (LNX1_2, Q8TBB1): below the threshold
